Values quoted from earlier work in article PMC3814599.
Several values for one entry are separate records, joined by “and”; a condition that tells them apart may be missing. Equal entries are not always repeated.

Target: HIV-1 capsid (CA) NTD (Human immunodeficiency virus 1) (UniProt O93182)

Chain of NUP358 (P49792 whole entry): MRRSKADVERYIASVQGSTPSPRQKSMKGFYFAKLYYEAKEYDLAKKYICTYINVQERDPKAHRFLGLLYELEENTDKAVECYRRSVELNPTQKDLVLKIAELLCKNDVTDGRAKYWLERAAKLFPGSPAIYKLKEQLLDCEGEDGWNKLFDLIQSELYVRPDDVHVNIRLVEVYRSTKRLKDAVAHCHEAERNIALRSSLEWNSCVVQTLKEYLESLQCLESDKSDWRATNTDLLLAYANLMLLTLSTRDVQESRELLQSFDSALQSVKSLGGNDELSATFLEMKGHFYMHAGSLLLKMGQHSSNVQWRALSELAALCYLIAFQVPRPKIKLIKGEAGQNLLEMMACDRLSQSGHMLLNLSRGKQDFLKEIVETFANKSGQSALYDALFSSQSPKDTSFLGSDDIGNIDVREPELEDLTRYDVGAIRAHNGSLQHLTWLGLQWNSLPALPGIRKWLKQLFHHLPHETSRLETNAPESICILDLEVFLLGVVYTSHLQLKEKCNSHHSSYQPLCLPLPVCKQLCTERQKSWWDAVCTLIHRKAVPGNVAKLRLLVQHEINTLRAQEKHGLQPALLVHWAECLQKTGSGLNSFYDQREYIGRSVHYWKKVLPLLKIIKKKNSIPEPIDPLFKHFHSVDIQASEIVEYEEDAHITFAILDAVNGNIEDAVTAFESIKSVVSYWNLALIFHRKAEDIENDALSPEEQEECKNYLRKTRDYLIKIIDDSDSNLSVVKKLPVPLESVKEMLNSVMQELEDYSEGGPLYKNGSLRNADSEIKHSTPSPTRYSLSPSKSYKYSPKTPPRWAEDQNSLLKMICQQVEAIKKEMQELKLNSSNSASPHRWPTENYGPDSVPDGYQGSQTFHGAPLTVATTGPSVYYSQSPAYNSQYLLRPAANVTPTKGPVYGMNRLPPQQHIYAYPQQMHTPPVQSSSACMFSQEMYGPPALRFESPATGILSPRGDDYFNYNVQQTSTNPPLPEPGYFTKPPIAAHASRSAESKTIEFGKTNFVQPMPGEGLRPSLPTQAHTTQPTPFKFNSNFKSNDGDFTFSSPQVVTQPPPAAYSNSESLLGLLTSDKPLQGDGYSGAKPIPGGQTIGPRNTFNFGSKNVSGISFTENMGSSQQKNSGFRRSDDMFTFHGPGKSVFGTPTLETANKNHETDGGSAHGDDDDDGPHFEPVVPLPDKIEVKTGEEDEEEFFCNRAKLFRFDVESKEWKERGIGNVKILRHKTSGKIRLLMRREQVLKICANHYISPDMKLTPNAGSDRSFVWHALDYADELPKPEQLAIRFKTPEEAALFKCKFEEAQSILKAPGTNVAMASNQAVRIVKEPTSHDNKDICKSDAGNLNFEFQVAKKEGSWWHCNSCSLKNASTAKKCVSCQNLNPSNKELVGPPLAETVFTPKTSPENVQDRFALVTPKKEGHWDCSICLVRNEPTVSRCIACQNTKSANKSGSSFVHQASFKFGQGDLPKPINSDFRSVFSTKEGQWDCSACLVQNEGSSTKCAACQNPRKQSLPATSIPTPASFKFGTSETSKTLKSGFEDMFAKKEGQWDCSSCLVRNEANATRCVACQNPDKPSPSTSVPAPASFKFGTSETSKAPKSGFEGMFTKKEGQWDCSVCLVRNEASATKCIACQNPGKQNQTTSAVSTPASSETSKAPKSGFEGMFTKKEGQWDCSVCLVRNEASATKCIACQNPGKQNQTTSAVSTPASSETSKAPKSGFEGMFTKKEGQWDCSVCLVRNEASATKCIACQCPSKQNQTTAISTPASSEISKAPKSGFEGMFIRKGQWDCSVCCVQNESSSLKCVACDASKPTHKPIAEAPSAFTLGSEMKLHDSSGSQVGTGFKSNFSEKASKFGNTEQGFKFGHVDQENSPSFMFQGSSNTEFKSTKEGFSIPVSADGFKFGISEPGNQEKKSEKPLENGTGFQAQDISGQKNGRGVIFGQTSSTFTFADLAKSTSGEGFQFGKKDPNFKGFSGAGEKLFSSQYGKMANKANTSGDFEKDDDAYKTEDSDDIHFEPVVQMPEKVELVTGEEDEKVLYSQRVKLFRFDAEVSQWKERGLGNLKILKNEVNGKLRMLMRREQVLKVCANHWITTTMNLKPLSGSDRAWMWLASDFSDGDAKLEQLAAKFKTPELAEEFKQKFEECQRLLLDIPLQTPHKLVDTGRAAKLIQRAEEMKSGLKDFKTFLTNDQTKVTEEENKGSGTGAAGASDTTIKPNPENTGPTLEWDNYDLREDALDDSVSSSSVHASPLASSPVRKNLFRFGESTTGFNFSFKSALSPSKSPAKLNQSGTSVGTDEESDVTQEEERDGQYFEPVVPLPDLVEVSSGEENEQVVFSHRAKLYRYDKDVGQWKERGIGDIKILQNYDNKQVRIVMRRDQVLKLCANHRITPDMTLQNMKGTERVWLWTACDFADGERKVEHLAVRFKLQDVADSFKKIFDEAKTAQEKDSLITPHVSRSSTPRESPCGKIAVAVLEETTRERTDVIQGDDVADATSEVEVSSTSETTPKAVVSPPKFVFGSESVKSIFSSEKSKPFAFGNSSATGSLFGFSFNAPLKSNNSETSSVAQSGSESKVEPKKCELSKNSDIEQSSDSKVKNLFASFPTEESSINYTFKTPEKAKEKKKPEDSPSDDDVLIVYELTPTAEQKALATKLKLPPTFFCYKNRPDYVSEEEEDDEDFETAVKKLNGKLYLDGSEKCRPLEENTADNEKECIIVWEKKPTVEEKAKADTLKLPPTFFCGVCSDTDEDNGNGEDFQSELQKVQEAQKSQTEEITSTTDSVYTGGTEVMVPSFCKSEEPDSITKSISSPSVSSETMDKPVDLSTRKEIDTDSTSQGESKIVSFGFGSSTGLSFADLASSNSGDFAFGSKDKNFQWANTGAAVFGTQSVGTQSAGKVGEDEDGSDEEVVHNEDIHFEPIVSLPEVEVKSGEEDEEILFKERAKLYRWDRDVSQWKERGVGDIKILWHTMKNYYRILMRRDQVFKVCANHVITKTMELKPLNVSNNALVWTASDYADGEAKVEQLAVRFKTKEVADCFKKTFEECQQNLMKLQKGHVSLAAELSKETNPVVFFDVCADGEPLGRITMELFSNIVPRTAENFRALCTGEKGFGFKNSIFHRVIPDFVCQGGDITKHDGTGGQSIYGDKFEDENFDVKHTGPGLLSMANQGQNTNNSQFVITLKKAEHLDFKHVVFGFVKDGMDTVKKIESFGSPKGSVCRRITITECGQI

## NUP358 (from UniProt P49792)
  Kd: 150 µM and 16 µM
